From the RNAGym collection of RNA variant scans (doi:10.1073/pnas.2313332121)

B1: TPR t1 (parent)
chain: GACCAAUCUGCCCUCAGAGCUCGAGAACAUCUUCGGAUGCAGAGGAGGCAGGCUUCGGUGGCGCGAUAGCGCCAACGUCCUCAACCUCCAAUGCAUCCCACCACAUGAUGAUGCCUGAAGAGCCUUGGUUUUUUG

Variants of: B1
Test: polymerase ribozyme fitness, log enrichment relative to wild type (log ratio); higher = more active; in vitro selection for triplet polymerase activity
In short: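 Each subunit of a heterodimeric triplet polymerase ribozyme was mutagenized into a library by PCR, transcribed, and subjected to one round of in vitro selection, run in triplicate. Libraries were annealed with a biotinylated primer, the partner subunit and triplets, incubated frozen at −7 °C, and extended constructs were gel-excised, captured on streptavidin beads and recovered by RT-PCR. Input and output libraries were sequenced on Illumina, keeping genotypes with ≥10 input reads and ≥1 read per output. Fitness is log base 2 of genotype enrichment divided by wild-type enrichment, from inverse-variance-weighted replicate averages.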

In order of rising “polymerase ribozyme fitness (log ratio)” value:
1. G42U A46C C53A U92A A95C C104G U112A  -7.25
2. G42A C64G C114G G117C  -7.17
3. G42C G48A G63U U78C A83C G113U  -7.11
4. G42A G69A G93C  -6.98
5. G42C U109C  -6.86
6. A43C G48U C62A A66U C123A  -6.8
7. A43G C64G U87G G110A  -6.77
8. A43C G63A C114G C123U  -6.77
9. G42A G45C G61A A105C C115U  -6.55
10. G42U G44A C56U G61C A68U C85U G110U U116C  -6.46
11. A43C U92G A111C C114A  -6.46
12. G42A C70A C102U C114G U125A  -6.46
13. A43C G51U C56U G58A C80A C89G C101A G122U C123A G127A  -6.31
14. G42A C88A C98G G110C  -6.29
15. A43C G48A C56U G63A G113U U125C U131A  -6.28
16. G42C G71C C79U C80U C97A A121U  -6.28
17. G42A G48A G69A  -6.28
18. G42A C99U  -6.05
19. A43C C56U C94A G117A  -5.97
20. G42A G45U C85A A111U  -5.93
21. A41U G51U C62U  -5.82
22. G42A C86A U106G  -5.73
23. G42U A43C G69C A74U U87G C89G  -5.66
24. G42U C49A U81G  -5.58
25. G42A U87C C89G A90G C115U  -5.47
26. G42U G58C G63A C82G U87C  -5.43
27. G42U G52U U54A A111C G122A  -5.42
28. G42A A111U  -5.4
29. A43C C62G  -5.4
30. G42C G44U G117U A118U  -5.32
31. A41U G113C C115A C124A  -5.25
32. G42U C94U U126A U129G  -5.24
33. G42U C70U U126G  -5.19
34. A41U G110C  -4.99
35. A43C C85U C115G  -4.93
36. A43C U87C C89A A91U U92G G93C U125G  -4.91
37. A41U G52A G117U  -4.85
38. G42U A43C G47C C62A U130C  -4.8
39. A43C U55A C62U G93U U96G  -4.79
40. G42A A46U C76U U96G  -4.78
41. G42A C56A U112A G120A  -4.77
42. G42A G45U C101A  -4.7
43. A43C G69A U112C G135A  -4.59
44. G42U C72G G128C  -4.55
45. A43C G48C G71A  -4.5
46. A43C C49A C94A C115A  -4.43
47. A43C C72U A100U U130G  -4.41
48. A41U G48C A83C C88G  -4.38
49. A43G A66G  -4.35
50. A43C C56A A66U U112A  -4.32
51. A43C A46U C101G C123U  -4.18
52. G42A G71U U130G  -4.16
53. A43C U78C C80A C89U  -4.14
54. A43C G77U C85G  -4.12
55. G42A A100C  -4.08
56. G42A C85A C94G G113A  -4.07
57. G42C G71U G117A  -4.04
58. G42C G47U  -4.02
59. A43G A50G G60U A95G U132C  -3.96
60. G42U C88U C101G  -3.94
61. G42A C94G U130G  -3.82
62. G42A C56G C64U G122A  -3.76
63. A41U G60A C80U  -3.75
64. G42U U87C G128U U133A  -3.75
65. G42C A46U C82G  -3.68
66. A43C G47U  -3.64
67. G42U A50U G69U A105G  -3.63
68. A43C G60C U131G  -3.6
69. G42U G61U C88G C101A G120C  -3.56
70. A43C G52U  -3.56
71. A43C G77A G127C  -3.5
72. G42U C72A A74G U96C  -3.45
73. G42U G61U C82U G127A U133A  -3.41
74. G42C U55A G63U C101U  -3.41
75. G42C A66U A83U  -3.36
76. G42A U116C  -3.35
77. G42C G71U G77C A100U  -3.33
78. G42A G44C C56G G135U  -3.31
79. G42C G44A A50C C82U C85U  -3.31
80. G42C G44U A50C U125A  -3.27
81. G42A C49G C72A C94U U130A U132C  -3.26
82. A43C G47A C115U U116C  -3.25
83. G42A C56G G122A  -3.21
84. G42A G44U C73G U112A G122A  -3.21
85. A43C C53A C56A C62U  -3.14
86. A43C C72A U81C  -3.09
87. G42A C49U C56U U130G  -3.07
88. A43C G117A  -3.01
89. A43C G48C  -2.99
90. G42C C62U  -2.97
91. A43C G113A  -2.91
92. G42A C114G  -2.75
93. A43C C101U  -2.75
94. G42U U78A C85U  -2.63
95. A41U G61A G127C  -2.63
96. A43C U78C C88U G93A  -2.62
97. G42A G113A  -2.62
98. A43C G93U  -2.59
99. G42A G63A  -2.56
100. A43C U87G G113C  -2.52
101. A43C U87A U106A  -2.43
102. G42A U96C  -2.41
103. G42U A43C C73U G93A  -2.39
104. G42A C88G U132C  -2.38
105. G42U G93U A118G  -2.35
106. G42A G57U G122U C123U  -2.35
107. G42A U78A  -2.26
108. G42U C70U  -2.26
109. A43C C88U  -2.23
110. G42C C49U  -2.21
111. G42U C53G G77U U126C  -2.18
112. G42U G93A  -2.14
113. A43C G44U  -2.14
114. G42A C115A U130G  -2.13
115. G42A C70U  -2.09
116. G42U G71U  -2.08
117. G42C G60C G120U  -2.03
118. A41U U130A  -2.03
119. A43C U125A  -2
120. G42U A50C  -1.99
121. G42C G63U C123U U133A  -1.98
122. A41U G57A  -1.97
123. A43C U131C  -1.94
124. A43C G45A A50G G113U G120C  -1.89
125. G42A A83C  -1.87
126. A43C A118U  -1.82
127. G42U U130A  -1.76
128. G42U G122A  -1.66
129. G42C U133G  -1.65
130. G42A U87G  -1.65
131. G42A C56A  -1.64
132. G42U C72U  -1.64
133. G42A U54C U132A  -1.62
134. A43C A46G  -1.62
135. G42U G44U C49A G69U U87G A119U G135A  -1.59
136. G42U G57U C82U  -1.58
137. G42U C73A  -1.55
138. A43C G69U G110A  -1.54
139. G42U C73U  -1.51
140. A41U U133G  -1.49
141. G42A C56G  -1.49
142. G42A G47A U112A  -1.49
143. G42U U78C  -1.45
144. G42C U54G  -1.44
145. G42C C62U U131C  -1.44
146. G42C U96G  -1.41
147. G42C A66G C79U A121C U133G  -1.36
148. G42U A43G C123A  -1.31
149. A43G C64U  -1.23
150. G42U G61A  -1.21
151. A41U G58C  -1.16
152. A41U U55A  -1.08
153. G42U A43G G45U U55G C72A  -0.969
154. A41U U92A  -0.903
155. G42C U96A C123U  -0.809
156. A41U U87G  -0.681
157. G42U G52A A75G C101U  -0.635
158. G42C G120A U132A  -0.616
159. G42U U112A  -0.57
160. A43C C124A U125G  -0.534
161. G42U C49G U112A  -0.357
162. G42U G61U C123A  -0.3
163. G42U U78C C123G  0.17
164. G42C C124G  0.37
165. G42U A121C  0.464
166. A41U G69U G120C  0.831
167. G42C C56U C124A  0.861
